One data set has as its target U2AF65 (human, UniProt P26368 1-475). Description: EMSA.
Another data set addresses U2AF65;U2AF35 (human;human, UniProt P26368;Q01081 1-475;1-240, |). Description: EMSA.

U2AF65;U2AF35, sequence (P26368 whole entry, chain 1 of 2): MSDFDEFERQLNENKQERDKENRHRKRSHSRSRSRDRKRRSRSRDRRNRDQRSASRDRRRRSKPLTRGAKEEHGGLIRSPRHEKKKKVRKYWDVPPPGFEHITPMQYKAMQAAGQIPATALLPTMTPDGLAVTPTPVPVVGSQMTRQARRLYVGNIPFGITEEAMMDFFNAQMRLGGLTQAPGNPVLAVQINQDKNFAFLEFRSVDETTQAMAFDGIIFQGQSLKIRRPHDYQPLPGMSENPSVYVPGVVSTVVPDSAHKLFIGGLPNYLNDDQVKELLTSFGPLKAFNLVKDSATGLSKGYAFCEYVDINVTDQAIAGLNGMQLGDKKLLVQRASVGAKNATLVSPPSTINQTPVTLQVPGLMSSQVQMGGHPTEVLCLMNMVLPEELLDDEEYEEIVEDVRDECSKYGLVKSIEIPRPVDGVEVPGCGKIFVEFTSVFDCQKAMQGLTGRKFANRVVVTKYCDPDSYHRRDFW
U2AF65;U2AF35, sequence (Q01081 whole entry, chain 2 of 2): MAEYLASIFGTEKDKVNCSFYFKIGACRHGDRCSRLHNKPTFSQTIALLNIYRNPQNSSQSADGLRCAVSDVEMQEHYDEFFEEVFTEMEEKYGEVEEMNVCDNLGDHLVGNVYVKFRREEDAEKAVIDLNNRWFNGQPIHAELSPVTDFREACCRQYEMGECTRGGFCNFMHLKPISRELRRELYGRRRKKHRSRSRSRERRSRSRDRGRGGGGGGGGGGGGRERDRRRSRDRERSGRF
U2AF65, sequence (P26368 whole entry, one chain of several): as the sequence (P26368 whole entry, chain 1 of 2) above

As for GGGAGACAGGCUUACGCAUUCGUCUAUCUUUCGCAUAGUUUGGUCCA (ssRNA) [FECH mutant (PT, E+1 G>U)], the binding result in the data set with U2AF65 and with U2AF65;U2AF35 was “no binding” throughout.

The values above are taken from article PMC3105431.
